Test results from PMC10051150, “Structure and Dynamics of Three Escherichia coli NfsB Nitro-Reductase Mutants Selected for Enhanced Activity with the Cancer Prodrug CB1954” (International Journal of Molecular Sciences, 2023).
Substitutions are numbered along the chain they refer to. Names and notes keep the numbering of the source.

B1: T41L/N71S NfsB (enzyme, Escherichia coli)
chain: MDIISVALKRHSTKAFDASKKLTPEQAEQIKTLLQYSPSSLNSQPWHFIVASTEEGKARVAKSAAGNYVFSERKMLDASHVVVFCAKTAMDDVWLKLVVDQEDADGRFATPEAKAANDKGRKFFADMHRKDLHDDAEWMAKQVYLNVGNFLLGVAALGLDAVPIEGFDAAILDAEFGLKEKGYTSLVVVPVGHHSVEDFNATLPKSRLPQNITLTEV
notes: Escherichia coli NfsB nitroreductase, 24 kDa subunit, expressed as the native protein; Expressed 'as the native proteins', so no tag is stated; Homodimer with one FMN per active site; also called double mutant; T41L/N71S mutant; source: E. coli BL21 (λDE3), pET11c, purified (Phenyl Sepharose, Q-Sepharose)
B2: T41Q/N71S/F124T NfsB (enzyme, Escherichia coli)
chain: B1 chain with L41Q, F124T
notes: Escherichia coli NfsB nitroreductase, 24 kDa subunit, expressed as the native protein; Expressed 'as the native proteins', so no tag is stated; Homodimer with one FMN per active site; also called triple mutant; T41Q/N71S/F124T mutant; source: E. coli BL21 (λDE3), pET11c, purified (Phenyl Sepharose, Q-Sepharose)
B3: T41Q/N71S/F124T/M127V NfsB (enzyme, Escherichia coli)
chain: B1 chain with L41Q, F124T, M127V
notes: Escherichia coli NfsB nitroreductase, 24 kDa subunit; also called quadruple mutant; T41Q/N71S/F124T/M127V mutant; source: initially purified from a UT5600 E. coli lysogen, later also recloned into pET11c; purified (Phenyl Sepharose, Q-Sepharose)

Molecular target: the molecule itself
Test: crystal structure; crystals from 10–18% PEG 4000, 50–200 mM sodium acetate buffer pH 4.6, 15 mM nicotinic acid (where present), 15% ethylene glycol; molecular replacement with PDB 1ICR; two subunits in the asymmetric unit

Binding result, binds:
B1
B2
B3
